The target of the assay is T1, PDZ protein (GST-PDZ fusion) (Homo sapiens, UniProt Q9ULD6).
T1 construct: made in house; host or cells: E. coli (DH5alpha, BL21 or JM109)
T1 sequence (Q9ULD6 1-942): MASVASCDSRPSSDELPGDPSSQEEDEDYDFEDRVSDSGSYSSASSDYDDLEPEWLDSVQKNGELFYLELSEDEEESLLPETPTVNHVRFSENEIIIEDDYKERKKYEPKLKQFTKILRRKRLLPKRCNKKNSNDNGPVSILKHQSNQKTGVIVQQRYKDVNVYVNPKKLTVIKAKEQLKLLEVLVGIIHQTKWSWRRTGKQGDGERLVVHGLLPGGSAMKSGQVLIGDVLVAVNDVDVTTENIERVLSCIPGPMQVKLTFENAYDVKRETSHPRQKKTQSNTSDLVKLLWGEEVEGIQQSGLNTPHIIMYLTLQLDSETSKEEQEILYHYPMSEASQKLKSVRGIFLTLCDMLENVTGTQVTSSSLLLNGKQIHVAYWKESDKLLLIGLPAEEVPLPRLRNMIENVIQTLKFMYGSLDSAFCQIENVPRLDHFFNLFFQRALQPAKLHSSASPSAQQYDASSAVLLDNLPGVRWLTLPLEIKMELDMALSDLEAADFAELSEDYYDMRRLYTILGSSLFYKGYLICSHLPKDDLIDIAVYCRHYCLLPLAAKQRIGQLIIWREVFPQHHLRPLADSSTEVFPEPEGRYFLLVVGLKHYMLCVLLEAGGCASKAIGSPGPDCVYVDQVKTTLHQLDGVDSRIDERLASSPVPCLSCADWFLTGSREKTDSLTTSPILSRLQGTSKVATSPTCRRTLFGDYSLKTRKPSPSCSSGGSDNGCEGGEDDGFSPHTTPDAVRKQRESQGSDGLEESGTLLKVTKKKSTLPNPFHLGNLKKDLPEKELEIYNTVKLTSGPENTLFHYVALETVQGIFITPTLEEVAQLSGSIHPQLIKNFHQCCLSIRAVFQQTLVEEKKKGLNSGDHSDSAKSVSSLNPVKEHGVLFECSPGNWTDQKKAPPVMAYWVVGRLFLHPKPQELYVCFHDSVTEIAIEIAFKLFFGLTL
Briefly: G' assay (10 uM PL peptide), results of TABLE 7 and TABLE 12. It is filed as binding. Particulars: PDZ KIAA1284, PDZ Domain 1. Summed up:
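Binding classes derive from A450 nm of bound biotin-tagged PL peptide. A score of 5 needs A450 above 4 in more than two repeats.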

Ends that are not written are not given here. Peptide text beside a SMILES is read from it. * marks the point of attachment. Biotin = O=C1N[C@H]2[C@H](CS[C@H]2CCCCC(=O)*)N1

“A2AA_HUMAN (modified) (Biotin-HDFRRAFKKILARGDRKRIV; not fully specified)”: the Classification is reported as 1 (A450 nm 0-1).

Consider `CSCC[C@H](NC(=O)[C@H](C)NC(=O)[C@H](CCCNC(=N)N)NC(=O)CNC(=O)[C@@H](NC(=O)[C@H](Cc1c[nH]c2ccccc12)NC(=O)[C@H](CCCNC(=N)N)NC(=O)CNC(=O)CCCC[C@@H]1SC[C@@H]2NC(=O)N[C@@H]21)[C@@H](C)O)C(=O)N[C@@H](CO)C(=O)N[C@@H](C)C(=O)N[C@@H](Cc1c[nH]c2ccccc12)C(=O)N[C@@H](CCCCN)C(=O)N1CCC[C@H]1C(=O)N[C@H](C(=O)N[C@@H](CCCNC(=N)N)C(=O)N[C@@H](CCCNC(=N)N)C(=O)N[C@@H](CCC(=O)O)C(=O)N[C@H](C(=O)N[C@@H](CCC(=O)O)C(=O)N[C@H](C(=O)O)C(C)C)[C@@H](C)O)[C@@H](C)O` [HPV E6 #35 (modified)] (Biotin-GRWTGRAMSAWKPTRRETEV-OH; C-terminus assumed), for which the Classification is given as 1 (A450 nm 0-1).

The values are drawn from patent US20050282743A1, “Molecular interactions in cells” (Arbor Vita Corporation, priority 2001, published 2005).
